Drawing on a protein production outcome set (Wang et al. 2014), this text covers protein production for 18 sequences.

The series in a line: label from the status in PepcDB records.
Consider “MKVSCCFGTCLKHLDPACVKTSRRIAILHSALPRQRPPPALECPAFSFGDSDMTDQRKGSDAEPTTHFGFKNVPESQKAEKVAEVFHSVAAKYDLMNDVLSGGMHRLWKRFTIELSGVRAGNRVLDIAGGTGDLTKRFSHLVGPTGQVVLADINESMLKVGRDRLLDLGVAGNVEFVQADAEKLPFPDNHFDCVTIAFGLRNVTHKEDALRSMLRVLKPGGRLLVLEFSKPTNALMSKVYDAYSFAFMPLAGKLITNDSESYRYLAESIRMHPNQETLKSMMVEAGFDRVTYHNMTAGIVALHRGIKP”, for which the protein production result is on record as “failed”.
Consider “MKVSSKLLSITNHHEYLDLVTDGAKFRIYLLDENIIRIRGTFDDDFAPEESYALVKTAWADATDDLIGDERQRVTPIAVELTETADGYTVSNGRYTLEIHAEPFYFEIKDQNGVTVHKDLVKRSFVQDDLGRRFHYSAMGDHDKFYGFGEKSGKLNKFKRRMRMHNTDSLGWNAAKSDPLYKMIPFYIDFNTTTNIASGLYYNNTHDSVFDMDCEHSNYWLRYSYFQCDGGDLDVFFIGGPTIKQVVEHYTDLTGKSAMMPLPSLGYMGSTMFYTELDQDADQAILDFIDTCKKNGIPCDGFFLSSGYTSGKDGKRYVFNWNKKRFPDPQKFVAELKKRGALLAPNIKPGMLVTHPLADEFMEKDAYIKTPDGQGSQVDQYWGGDAHFVDFTNPHGRDAWEQKMTEALLSIGITSIWNDNNEYEINDTQAVVDAEGQKSTIGALKPIMPTMMAKAAKDAINRYDATVRPYLVNRAGFAGIQRYAQTWAGDNYTSWTNVKYNIPTILGMGLSGVANQGCDIGGFDGPLPEPELFVRWVQNGIFQPRFSIHSCNNDNTVTEPWTYPAYTKYIRAAIQLRYSLVPYLYSLLYEASTKGSPIMRPLVYEFQDDPQVAEESFEFMLGASLLVANVVDKGQTAKSVYLPAGVDWLDLKTSQYYTGGQTITIPVDLGSIPMFLKAGSIVPQSKGLMNLHNDVIDKLDVLIEPSRDAEFVVYEDDGVTNNYRQGETLETTIKTTATADGVVIDFSRVGQYQTQVKTMALAVCCPKIAPLSVDLADQSLPRYLNAAKFADAAEGWYFDGESRQVQIKYANPEVAGYAVKVNFSVKDLISI”, for which the protein production result is “failed”.
For the sequence “MKVSVIIPTYNERENLEELFSRIDNALQGLNYEIVVVDDDSPDRTWEKAQELSSKYPVKVIRRTKEKGLSSAVIRGFKEASGDVFVVMDADLQHPPEVIPKLIEAIKNGSDIAIGSRYVKGGKVENWPFYRKLISKGAIMVGRIALPKIRDIKDPVSGFFALRKEVVEGVELNPIGFKILMEILIKGKYSKVVEVPFTFGIRARGESKLKGKTIFEYLRHIYRLMKWEGEIDRIVKFSIVGLSGILVNEGFLWLFVNLGIPKEIAVIPAVELSILNNFFWNDIWTFKDIRRGSIFSRLLKFHIAALSGAVVNFIVYWILLFLGIHYLIANLVGIVLSFGVRYVINRHVTWAT”, the protein production result is “failed”.
Take “MKVTFMNLEERKKLETKSIDELDLIGKKVCVDTCVVIDGRITELIERGKLKDATIIIPEAVVSELEYQANMGREIGYKGIEELRKLIEKASEHNIKVEYYGERPTREEIFLAKSGEIDAMIRKVAKETNSILLTSDWIQYNLAKAQGIEAYFLEAAEEEVELVLD”: the protein production entry is given as “not failed”.
Turning to “MKVTNLFKDKVDAISAHQSEFMNWMSPTLRDYWSDFLGKAQNSFLFSNVRDHNQPAVNEEVAPQPAPIVLQPEAQKLYDELSGKIGEVIHTGDWVHVSQERINQFGAVTEDMQWIHTDPERASVESPFKTTIAHGFLTLALLPKLTDSVDADKPLFPTAKLVVNLGLNQVRFPYPVKAGNNVRAVSTLTKVTPIKKGLEIEREIKVEIEGVRRPGAVVVSVIQLHFLEHHHHHH”, the protein production result is “not failed”.
With “MKVTSAEKHALLLPDNRTLTWYESGPSDGQPVLFCTGAGMSGLLSMDADLLTKLNIRLITPTRPGLGESTFDPKKTLKSFSSDVLFLLAYLNIKNISVIGSSQGAVFAMAICYYGKVDKLAIVAGQDQLDYPEIKKLLSSDVVNMQQQALFDPDGLKTWIIENITADWLMDFILNYSADVDLALYQENKFFPVYQACMKEAFKYGNKGYAQDLLITMQPWGFTPEMISTPTTLWYGLKDTSTVHSPDFGKLLSQRFPHAQRYVYDNEGGSLLWTKTSQILTNLIS” the entry was “failed”; with “MKVVVITGNLSRPSKTRAVADFMVDRVRASGNEASCWDLVDLHPHLGATVLPSSAAEIVKAALNDILASDVLVVGSPVYKASYTGLLKHLFDLVDMKALKGRYVIPFATGKASSHKPLVEASMEALFDFFEAQIHSRFIFALDEDFQNDALSENLRALVDRELDAARRAVSP”, “failed”; with “MKVVVQIKDFDKVPQALRSVINLYNDIKDAEIEVVLHQSAIKALLKDSDTRSIIEDLIKKNILIVGCENSIRSQNLSHDQLIPGIKIVTSGVGEIVRKQSEGWIYLAL”, “not failed”.
Next, “MKVYLHFSPQFFANTYLIGNEITKEAVIIDPAKITEKMIHQIEKNEFNLKAVLLTHDLEHPYETGLNTILKIYSPKVYAGSCFSENVTINTLRGDGCIDVAGYSVRYFAIPAHSSYSYMFQIENMVFTGTSLSAGMIGQTSNMYAERTLRNILKTKLMCFEDNLIIMPFYGPPTSIGVERKYNASFFQDFEKKPFLEHHHHHH”: “not failed”.
With “MKWIDSHIHVDQYKDEEKSRLLKEVENSKEIKGLIAVSMNYQSCKETLSLAKKYPFIYPAIGFHPEQQIHKEECEQIYQLIEQNAEEIVAIGEVGLPYYLRKEDERIAADPYIAVLKKFIELASKYNLPIVLHAVYEDADIVCDLLEKYKVSRAHFHWFKGSDETMKRMMRNGYYISITPDVLHKEKIRKIVSYYPLEYMMVETDGPWEFQEDVITHPRMIREVLKEISSIKNISIDKVAETIYENTSRFYLK” the entry was “failed”; with “MKWLRSEMKTFAIHLPQFHTFPENDRWWGKGFTEWTNVKKAKPLYEGHSQPLIPINSHYYDLSNPEEMTRQHRLAAQYGIDGFVYYHYWFNGKKLMEKPVEDLLTNKEAKQQYCLCWANEPWTRAWDGKNKEILMPQTFGGQEDWLNHIRYLISFFKDERYLRIQGRPVFFVYSPKNIPNFDNMIEFWDSYLERCGEEKIYLIEYISSFNPKAFSDYSKAVFEFEPLYSAHYEISFLKQADRFIDKKMKRLDCLDYDYLWNRILNKQRKYGTRQIVRSAFTNFDNSPRKGTRAFITQGSSYTKFADYLNQLIHSNRQDYMDFTVINAWNEWGEGAILEPTESDQYGWLQAVKDAVQ”, “failed”; with “MKWRSRQLSFSSAKWYGDVIWIFDPGIIGAQIDNEGDLKKCFIQTLFHSTGSRQSIRIWWREIMLSLILRIYLDKFLPWISLSIKEVGESSVINFSLWGCLHGTRFRRWYSPFQKLSALAITKKDVISSSWRCFNGMRCN”, “failed”.
As to “MKWRYSPKTSNYCFIVGGFFLFLPILMYGWGHFRRPPRSENQQELFRGIVYQRLIESKPRPLIIHIVTIDLNTPGIKPFITPDIENLSKNVGVGKQAIIDNETKARTTSEFVAEFQVKLAINGSYFYPFKEVTPWHYYPHSGDTTKVLGQTISNGKIYANKKSSWYVLCFDNNNQAQIPGGEECPKNTIQGLAGDDVLVFQGKPKINIYANSSADKPYSRVVAAIDKTGKKLWLVLVDGKQPLYSEGFTKRELTQFIAKLGVYNAINLDGGGSTTLVVANPDKEGKPKILNAPTHTKILMRDRPVANHLGFYAD”, the protein production result was “failed”.
“MKYADISHFSHPQHNLKFDYTEKPFKCDGCNEVGIGSRYRCSGDNHGSCDFDLHAHCALPSASITHPFYKKCTFQFVARPPGNERRYCNACEKDVSGFLYHCKACGFDLHPCCAMLPMVLDDGETNLFLYRKVSSSCHRCGKKGRSWSYRSLFLILFLFFHYYDTKD”: the protein production entry is given as “failed”.
Next, “MKYIRKSISIFAVLALVFILSFGNVSAGTIYESKTKETVTSGVTLETITRFTDDGWQKINVLRVDLENPNVKVDTLIDSESIKKLTNVKNLAQSAGAVAAVNAGFFNWLKGESGKGYPDGPVIKSGEFLSVDSEYNRYNNSMATIAIDKDNNVYFDFWKTDITLHAPDGSTTRVFQYNKPSPFQYTDITIWTSAWDKYSLGVSQQYPDLVEVVVDNGTVVEIRQGLPAVEIPQNGYVIISRGANAQFLLQHFKVGDPVEISFSTVLDWQKIEMAVTGSAILVKDGQIPEKFSYEISGVHPRTAAGTSKSGKELILVTVDGRQAASKGMTQRELANLMLSLGAYNAINLDGGGSTSMVSRIPGTNDLKVVNTPSDGALRSISTAIGVFSVAPPSELAGMIIETQPNVFVNSSTTLTVKGYDKYFNPVSVDPNSINWSVSGIKGSFAGNVFRAESSGIGTITATVNGIKASTTIRALEAPNKLILSTTKLNLLKGSSYSFTVKGVDNNGYSSYINFADINWTVNGDIATIEKNKITAVKPGTGYIEAAFGDARAYCAVSVASESTYLVDDFEKKNGSFETVPANLPGSYELSSEVKKSGNYSGKLSYDFSYLEGTRAAYLVFPNGGIDLDGNTVEITMMVNNPQQNPNWLRAEVIDSGGQKHLVDFTRDLTWTGWGRVFASLRDIKSPAKLTKIYVVQVNPVPSSGCIYIDDLSLVKATFPEINESTIPKDVVLSDRDNKEAALNKDSIKISVFSGKSNPENMLQKLLNTKFYNKVKADGYMKSIQDISNINTNTHVDIGGTRLITLNTTDKSIRTSASGQWQWFFDKLNSHTGDNIFIFMKNSPDTFVDPLEAKLFKDILIEHKEKTGKNIWVFYGNSSETYYADNGIKYFGVAGLNIGGLTPDNAKNVKYIEITVNGKEVSYQYKSPLK”: “failed”; “MKYLAAYLLLVQGGNAAPSAADIKAVVESVGAEVDEARINELLSSLEGKGSLEEIIAEGQKKFATVPTGGASSAAAGAAGAAAGGDAAEEEKEEEAKEESDDDMGFGLFD”: “failed”; “MKYLAFSIVFILTAFTRVTAQNLDGIDKSLSLSKMKTRARIAEETGDIYTALFYYEEVVRNDSSDLKALYQVAEMQRFTRNYKAAEVTYGKIHEIAAADYPLAQYYQGLMQKMTGRYEDAKQTFSEFRKNSAALADKTFKATLARDISGCDSGITYRDFPQNTQIKNAGKSVNFPHTEFSPVILDSTTLAFGSLRIDSVIYYDTRGEHYEKQPVRQLYEAKKVKGQWVEKGLLEAINDPAMDMGNFVYSPTTDRYYFTKCTKNHHGKVSCAIYYSERVSGKWSHPSKLPDPINIEGYTATQPTIVIDTTSSSAATTTPKNMPPRKTGGNKPVPKPVVNTIEYLYFVSDRPKGKGGLDIWYTSYNASKKTWNEPTNLAVANTPETECTPFYHVPTQTLYFSSNGLVNAGGLDIYKLEKDGRRFGRPENLSFPVNSPQDELSFVLADNAKTGFFVSNRPGGTPFFHETCCDDIFSFEVIPPPPFVCTLDLSVLDVAAKNNCDGELLNINQVNLKTKAAEKDTVRLSSCKYTVSLAQHVKYTFFINKPGYVTDTLSFETRDMCATPTITKSLTLVPVSVSMKNSEPVIETPVEGKAFVLKDIQYETNQTDLNDEAKAAIDNILIPFLKEHPTDKIIISSHTDDVGSHKYNENLSDQRALKVMQYLIQKGISAKQIQAKGYGETKPIASNINPDGSENEIGRSINRRTEFLISK”: “failed”.
Next, “MKYLYQQLLAFIGVIALIILIVGTSFTQLTKRTMQENNYEQLYGYAESALETRDFFINVAGVSDRDVLSYSFQLTERVLQKQDVQFVFINKDREVQYPPVDSTKKLDFSLIDKNWDQIMKGNRVYATENIDIYGARNTSSYVMLPVYASNQSSDKKVIIGSLVITQPAKNVDRSVQSVTQNLIKGFIFSGVIALLLSYLFATFQVKRINRMRKATKEITSGNFDIQLPVHDKDEFDDLAEDFNKMAASLKESQEEINRQEERRRQFMADASHEMRTPLTTINGLLEGLQYNAIPENQKENAIKLMQNETARLIRLVNENLDYEKIRTNQIQIVVKKFNGTEALENIVTQLTAKAEAAGNQLYLDTTEPIDVYADYDRFVQVVVNIVQNAIQFTENGEIHIALEKGYLETIVRISDTGIGMTEEQILNIWDRYYKVDPSRKNTKYGESGLGLPIVQQLVRLHKGKINVESELGKGTTFIISFPDVEITEN”: “not failed”.
